Here are results for one substance from PMC3299322.

Experiment [1] addresses Tissue factor (residues 1–209), soluble, immobilised on CNBr-activated sepharose-4B. Description: radioligand binding; as a1 but in human serum, 0 hour (no incubation in serum before the sepharose was added); binding 1 h at room temperature; median of 3.
The target is the same in experiment [2]. Description: radioligand binding; as a1 but after 1 hour of incubation of 111In-DTPA-rFVIIa in 270 uL human serum at room temperature before the sepharose was added; binding 1 h at room temperature; median of 3.
Experiment [3] shares this target. Description: radioligand binding; 111In-DTPA-rFVIIa incubated 1 h at room temperature with TF (1–209)-sepharose (50% suspension) in assay buffer (10 mM glycyl-glycine, 150 mM NaCl, 10 mM CaCl2, 0.1% BSA, pH 7.5); beads and filtrate separated in Spin-X filter tubes and counted; median of 3 labellings.

For the substance “111In-DTPA-rFVIIa (111Indium-labelled, DTPA-conjugated recombinant activated coagulation factor VII) (enzyme)”, the binding efficiency (%) worked out at 39% in experiment [1], 36% in experiment [2] and 48% in experiment [3].
